Target: the molecule itself
Assay: SEC-MALS

B1: hFcµ-tFcµ-chi3 with Cys414 mutated (domain or fragment)
chain: TAIRVFAIPPSFASIFLTKSTKLTCLVTDLTTYDSVTISWTRQNGEAVKTHTNISESHPNATFSAVGEASIAEDDWNSGERFTCTVTHTDLPSPLKQTISRPKGVALHRPDVYLLPPAREQLNLRESATITCLVTGFSPADVFVQWMQRGQPLSPEKYVTSAPMPEPQAPGRYFAHSILTVSEEEWNTGETYTCVVAHEALPNRVTERTVDRTSNQPNLVNLSLNVPQRCMAQ
B1 was tested, and the “pentamer:monomer ratio” value was 14%.
